± gives the uncertainty stated by the source.
Experiment: self-splicing fitness, log relative to wild type (ln ratio); higher = more splicing; Tetrahymena group I intron in knt gene, E. coli kanamycin selection, DiMSum; sequences stand for … in CUCUCU…GGAGGGAAAAGUUAUCAGGCAUGCACCUGGUAGCUAGUCUUUAAACCAAUAGAUUGCAUCGGUUUAAAAGGCAAGACCGUCAAAUUGCGGGAAAGGGGUCAACAGCCGUUCAGUACCAAGUCUCAGGGGAAACUUUGAGAUGGCCUUGCAAAGGGUAUGGUAAUAAGCUGACGGACAUGGUCCUAACCACGCAGCCAAGUCCUAAGUCAACAGAUCUUCUGUUGAUAUGGAUGCAGUUCACAGACUAAAUGUCGGUCGGGGAAGAUGUAUUCUUCUCAUAAGAUAUAGUCGGACCUCUCCUUAAUGGGAGCUAGCGGAUGAAGUGAUGCAACACUGGAGCCGCUGGGAACUAAUUUGUAUGCGAAAGUAUAUUGAUUAGUUUUGGAGUACUCGUGGUCG
Procedure, shortened: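 The eight P1ex-region nucleotides of an intron in the knt kanamycin-resistance gene on pET-22b(+) were all randomised and the library put into E. coli BL21(DE3). Six replicate transformations were grown overnight at 37°C or 30°C on LB agar with or without 25 μg/mL kanamycin, together with 100 μg/mL carbenicillin, 50 μM IPTG and 0.2% rhamnose. Colonies were pooled and amplicon-sequenced on an Illumina HiSeq 2500. Fitness from DiMSum is the error-weighted combination of wild-type-normalised replicate fold changes, kanamycin over none.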

| Sequence | self-splicing fitness (ln) (30 °C) | self-splicing fitness (ln) (37 °C) |
| --- | --- | --- |
| GUCAAGCAAUAUUACGUAUC | -2.71 ± 0.2 | -0.284 ± 0.16 |
| GUCAAGCAAUAUUACGUCUG | -3.64 ± 0.28 | -0.0416 ± 0.085 |
| GUCCAGCAAUAUUACGAACG | -1.52 ± 0.13 | -0.855 ± 0.16 |
| GUCCAGCAAUAUUACGAACU | -1.37 ± 0.074 | -0.292 ± 0.081 |
| GUCCAGCAAUAUUACGACUA | -1.52 ± 0.11 | -0.869 ± 0.11 |
| GUCCAGCAAUAUUACGACUG | -4.63 ± 0.39 | -1.86 ± 0.22 |
| GUCCAGCAAUAUUACGAGUA | -2.36 ± 0.16 | -0.787 ± 0.12 |
| GUCCAGCAAUAUUACGAUAG | -3.53 ± 0.14 | -2.89 ± 0.17 |
| GUCCAGCAAUAUUACGAUUG | -3.41 ± 0.17 | -3.17 ± 0.24 |
| GUCCAGCAAUAUUACGCAGU | -0.463 ± 0.046 | -0.161 ± 0.058 |
| GUCCAGCAAUAUUACGCAUA | -0.663 ± 0.091 | -0.0806 ± 0.094 |
| GUCCAGCAAUAUUACGGACA | -2.84 ± 0.26 | -1.67 ± 0.18 |
| GUCCAGCAAUAUUACGGAGU | -0.181 ± 0.063 | -0.404 ± 0.084 |
| GUCCAGCAAUAUUACGGGUA | -0.764 ± 0.061 | 0.14 ± 0.066 |
| GUCCAGCAAUAUUACGGUGU | -0.42 ± 0.066 | 0.833 ± 0.081 |
| GUCCAGCAAUAUUACGUAAC | -0.291 ± 0.073 | -0.649 ± 0.095 |
| GUCCAGCAAUAUUACGUAUA | -1.37 ± 0.073 | -0.787 ± 0.073 |
| GUCCAGCAAUAUUACGUAUU | -0.819 ± 0.078 | -0.174 ± 0.09 |
| GUCCAGCAAUAUUACGUGUA | -0.96 ± 0.073 | 0.159 ± 0.077 |
| GUCCAGCAAUAUUACGUUCA | -0.971 ± 0.088 | 0.797 ± 0.087 |
| GUCGAGCAAUAUUACGAAGU | -1.31 ± 0.33 | -1.65 ± 0.4 |
| GUCGAGCAAUAUUACGACGU | -0.827 ± 0.19 | -0.341 ± 0.16 |
| GUCGAGCAAUAUUACGACUC | -2.05 ± 0.32 | -1.15 ± 0.36 |
| GUCGAGCAAUAUUACGAGCC | -3.81 ± 0.47 | – |
| GUCGAGCAAUAUUACGAUCG | -3.65 ± 0.23 | -1.38 ± 0.18 |
| GUCGAGCAAUAUUACGAUUA | 0.373 ± 0.19 | -0.944 ± 0.2 |

| Sequence | self-splicing fitness (ln) (30 °C) | self-splicing fitness (ln) (37 °C) |
| --- | --- | --- |
| GUCGAGCAAUAUUACGCAAC | -1.92 ± 0.33 | -0.123 ± 0.22 |
| GUCGAGCAAUAUUACGCAGA | -2.79 ± 0.32 | -1.61 ± 0.39 |
| GUCGAGCAAUAUUACGCAGU | -2.71 ± 0.17 | -1.17 ± 0.14 |
| GUCGAGCAAUAUUACGCUGU | -1.73 ± 0.13 | -1.62 ± 0.2 |
| GUCGAGCAAUAUUACGCUUC | -5.12 ± 0.38 | -4.17 ± 0.33 |
| GUCGAGCAAUAUUACGGCCU | -2.83 ± 0.34 | – |
| GUCGAGCAAUAUUACGGCGA | -3.05 ± 0.21 | -1.9 ± 0.25 |
| GUCGAGCAAUAUUACGGGGU | -1.92 ± 0.16 | -1.74 ± 0.18 |
| GUCGAGCAAUAUUACGGUAA | -1.74 ± 0.19 | -2.18 ± 0.19 |
| GUCGAGCAAUAUUACGGUGC | -2.4 ± 0.16 | -0.222 ± 0.13 |
| GUCGAGCAAUAUUACGUAAC | -0.996 ± 0.13 | -0.434 ± 0.14 |
| GUCGAGCAAUAUUACGUAAU | -0.411 ± 0.065 | -0.515 ± 0.09 |
| GUCGAGCAAUAUUACGUAGU | -2.34 ± 0.12 | -1.47 ± 0.11 |
| GUCGAGCAAUAUUACGUCUU | -2 ± 0.1 | -1.39 ± 0.09 |
| GUCGAGCAAUAUUACGUGUC | -2.18 ± 0.08 | -1.6 ± 0.077 |
| GUCGAGCAAUAUUACGUGUU | -4.22 ± 0.28 | -2.09 ± 0.25 |
| GUCGAGCAAUAUUACGUUCC | -1.99 ± 0.24 | -0.593 ± 0.37 |
| GUCGAGCAAUAUUACGUUUU | -3.92 ± 0.32 | -2.07 ± 0.19 |
| GUCUAGCAAUAUUACGACGG | -3.01 ± 0.29 | -2.45 ± 0.27 |
| GUCUAGCAAUAUUACGACUG | -2.39 ± 0.23 | -2.73 ± 0.31 |
| GUCUAGCAAUAUUACGAGGG | -3.1 ± 0.11 | -1.57 ± 0.09 |
| GUCUAGCAAUAUUACGAUCC | -0.754 ± 0.16 | 0.0678 ± 0.24 |
| GUCUAGCAAUAUUACGAUGC | 0.169 ± 0.14 | -0.841 ± 0.13 |
| GUCUAGCAAUAUUACGAUUC | -0.168 ± 0.094 | 0.284 ± 0.1 |
| GUCUAGCAAUAUUACGCAAG | – | -1.66 ± 0.38 |
| GUCUAGCAAUAUUACGCCAU | -2.11 ± 0.26 | -2.04 ± 0.18 |

| Sequence | self-splicing fitness (ln) (30 °C) | self-splicing fitness (ln) (37 °C) |
| --- | --- | --- |
| GUCUAGCAAUAUUACGCCCA | -0.688 ± 0.26 | -0.356 ± 0.26 |
| GUCUAGCAAUAUUACGCCCG | -0.678 ± 0.27 | -0.293 ± 0.34 |
| GUCUAGCAAUAUUACGCCGA | -1.65 ± 0.19 | -0.506 ± 0.15 |
| GUCUAGCAAUAUUACGCCGU | -0.884 ± 0.23 | -0.0862 ± 0.26 |
| GUCUAGCAAUAUUACGCGCA | -0.481 ± 0.098 | 0.157 ± 0.087 |
| GUCUAGCAAUAUUACGCGGA | -2.61 ± 0.33 | -2.07 ± 0.27 |
| GUCUAGCAAUAUUACGGAAU | -0.979 ± 0.11 | 0.135 ± 0.11 |
| GUCUAGCAAUAUUACGGACC | -3.95 ± 0.46 | -0.565 ± 0.24 |
| GUCUAGCAAUAUUACGGAGG | -3.98 ± 0.3 | -1.59 ± 0.18 |
| GUCUAGCAAUAUUACGGAGU | -0.693 ± 0.096 | 0.121 ± 0.093 |
| GUCUAGCAAUAUUACGGCGU | 0.142 ± 0.069 | 0.0882 ± 0.091 |
| GUCUAGCAAUAUUACGGGCC | -3.14 ± 0.36 | – |
| GUCUAGCAAUAUUACGUAGU | -0.529 ± 0.087 | 0.276 ± 0.092 |
| GUCUAGCAAUAUUACGUAUG | -2.94 ± 0.18 | -0.896 ± 0.13 |
| GUCUAGCAAUAUUACGUCUG | -2.49 ± 0.14 | -1.51 ± 0.13 |
| GUCUAGCAAUAUUACGUUAG | -2.42 ± 0.16 | -2.28 ± 0.21 |
| GUCUAGCAAUAUUACGUUCA | -0.225 ± 0.11 | 0.35 ± 0.12 |
| GUCUAGCAAUAUUACGUUCU | -0.494 ± 0.098 | -0.247 ± 0.11 |
| GUCUAGCAAUAUUACGUUGC | -2.55 ± 0.42 | -0.754 ± 0.41 |
| GUGAAGCAAUAUUACGAAAA | -1.44 ± 0.14 | -0.831 ± 0.18 |
| GUGAAGCAAUAUUACGACGU | 0.815 ± 0.1 | 0.675 ± 0.1 |
| GUGAAGCAAUAUUACGACUU | -0.643 ± 0.056 | -0.276 ± 0.084 |
| GUGAAGCAAUAUUACGCCGG | -1.96 ± 0.45 | – |
| GUGAAGCAAUAUUACGCCUA | -0.415 ± 0.11 | -0.226 ± 0.17 |
| GUGAAGCAAUAUUACGCGUC | -2.19 ± 0.19 | -0.692 ± 0.16 |

Source: the supplement of paper PMC7877785
